Data on 2 compounds can be found in patent US8710195B2, “Fluorescent proteins” (JNC Corporation, priority 2003, dated 2014).

Series [1] can be described thus: Substrate specificity, chemiluminescence with h-CTZ. In kind it is biochemical. Particulars: compared with coelenterazine. As to the method:
bFP-aq, e-bFP-aq, and h-bFP-aq (0.25 μg) prepared in Example 2 were individually dissolved in 100 μl of 50 mM Tris-HCl (pH 7.6) containing 5 mM dithiothreitol (DTT) and 1 μg/μl coelenterazine and its analog were added to each solution. Each chemiluminescence in the steady reaction state (after 10 min) was measured with a luminometer (AB-2200; manufactured by Atto Co., Ltd.).

The nature of series [2]: Recoverability of fluorescence-generating ability after heating at 90° C. To be noted: heated at 90° C. for 3 min. Type of series: physicochemical. As to the method: The thermal stability of bFP-aq prepared in Examples 2 was compared with that of gFP-aq prepared Example 3. The solution containing bFP-aq or gFP-aq with a protein concentration of 0.26 mg/ml was heated at 90° C. for 3 min and allowed to stand at 24° C. Subsequently, each fluorescence generation intensity was measured with a spectrofluorometer.

For series [3] the following is noted: when calcium ions bind; cited from earlier work.

As to `O=c1c(Cc2ccccc2)nc2c(Cc3ccccc3)[nH]c(-c3ccc(O)cc3)cn1-2` [h-coelenterazine], in series [1], the “Quality as luminescent substrate of the bFPs” value is given as “serves as a luminescent substrate better than coelenterazine”.

On to aequorin, for which the “Ability to emit light due to the addition of calcium ions after heat treatment” value in series [2] is given as “completely been lost”. In series [3], the “maximum wave length of blue light emission” value is on record as 465-470 nm.
